Data reported in article PMC12687424 (2025).
FAM = fluorescein label

Biological target: WT PKCβII catalytic domain (UniProt P05771-2 321-673, primed (phosphorylated) at the three PKC priming sites (T-loop, turn motif, hydrophobic motif))
Test: FP; representative curve

Sequence of WT PKCβII catalytic domain (P05771 other isoform, or with tags, fused parts or gaps): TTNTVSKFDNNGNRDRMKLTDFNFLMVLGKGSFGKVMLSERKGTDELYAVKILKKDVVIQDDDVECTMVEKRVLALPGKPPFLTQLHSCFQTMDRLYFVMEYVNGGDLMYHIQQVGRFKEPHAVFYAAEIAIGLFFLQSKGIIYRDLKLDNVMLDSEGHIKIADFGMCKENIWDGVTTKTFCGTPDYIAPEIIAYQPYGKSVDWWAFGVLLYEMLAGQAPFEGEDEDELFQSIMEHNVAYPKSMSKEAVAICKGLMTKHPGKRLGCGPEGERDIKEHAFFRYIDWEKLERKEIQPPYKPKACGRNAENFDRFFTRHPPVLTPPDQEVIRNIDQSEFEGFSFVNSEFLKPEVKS

Kd: 39 µM
B1: Fluorescein-PSS peptide (peptide)
peptide: {FAM}-ESTVRFARKGSLRQKNVH-NH2
